Results published in patent US20090304724A1 (IPSEN PHARMA S A S, published 2009).

Legend:
[1] = target: human growth hormone secretagogue receptor (human) (UniProt Q92847); assay: (125I)ghrelin displacement, hGHS-R CHO-K1 membranes
[2] = target: T1, human growth hormone secretagogue receptor (human, UniProt Q92847 1-366); assay: as above
T1 construct: whole, on cells; also called hGHS-R; ghrelin receptor
T1 sequence (Q92847 whole entry): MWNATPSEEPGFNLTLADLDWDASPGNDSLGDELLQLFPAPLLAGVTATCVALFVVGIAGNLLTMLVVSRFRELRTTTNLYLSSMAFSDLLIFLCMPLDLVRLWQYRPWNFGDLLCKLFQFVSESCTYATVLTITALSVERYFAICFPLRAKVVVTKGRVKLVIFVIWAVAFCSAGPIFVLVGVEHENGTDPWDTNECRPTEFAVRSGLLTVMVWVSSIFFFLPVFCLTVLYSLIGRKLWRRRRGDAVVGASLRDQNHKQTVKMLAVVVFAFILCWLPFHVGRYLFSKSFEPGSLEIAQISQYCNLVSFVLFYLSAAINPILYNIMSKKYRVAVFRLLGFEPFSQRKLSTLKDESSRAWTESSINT
Procedure: Membranes for radioligand binding studies can be and were prepared by homogenization of the foregoing CHO-KL cells expressing the human recombinant GHS receptor. The cells were homogenized in 20 ml of ice-cold 50 mM Tris-HCl using a Brinkman Polytron® (Westbury, N.Y.; setting 6, 15 sec). The homogenates were washed twice by centrifugation (39,000 g/10 min) and the final pellets were resuspended in 50 mM Tris-HCl containing 2.5 mM MgCh and 0.1% bovine serum albumin (BSA). […] The filters were then washed three times with 5-ml aliquots of ice-cold 50 mM Tris-HCl and 0.1% BSA, and the bound radioactivity trapped on the filters was counted by gamma spectrometry (Wallac LKB, Gaithersburg, Md.).

human growth hormone secretagogue receptor (human), sequence (Q92847 whole entry): as above

Molecule | Ki [1] | Ki [2]
H-Inp-D-Bal-D-Trp-Phe-Lys-NH2 (peptide) | 0.33 nM | 
H-Inp-D-Bal-D-Trp-Taz-Apc-NH2 (peptide) | 0.83 nM | 
H-Inp-D-2-Nal-D-Trp-Taz-Lys-NH2 (peptide) | 0.8 nM | 
H-Apc-D-Bal-D-2-Nal-Phe-Lys-NH2 (peptide) | 0.68 nM | 
H-Inp-D-2-Nal-D-Trp(Ψ)-Pim (peptide) | 117 nM | 
H-Inp-D-Bal-D-Trp-2-Thi-Apc-NH2 (peptide) | 0.4 nM | 
H-Apc-D-Bal-D-Trp-Phe-Apc-NH2 (peptide) | 0.71 nM | 
Inp-D-2-Nal-D-Trp-Phe-Lys-NH2 (peptide) | 0.3 nM | 
H-Apc-D-Bal-D-Trp-2-Thi-Apc-NH2 (peptide) | 0.51 nM | 
H-Inp-D-Bal-D-Trp-Taz-Lys-NH2 (peptide) | 0.52 nM | 
H-Apc-D-Bal-D-Trp-Taz-Lys-NH2 (peptide) | 0.5 nM | 
H-Inp-D-Bip-D-Trp-Phe-NH2 (peptide) | 20 nM | 
H-Apc-D-1-Nal-D-Trp-Taz-NH2 (peptide) | 1.41 nM | 
H-Apc-D-1-Nal-D-Trp-Phe-NH2 (peptide) | 0.7 nM | 
GSXFLSPEHQRVQQRKESKKPPAKLQPR (Glu(O-hexyl) 3; C-terminal amide) [(Glu^3(O-hexyl))hGhrelin(1-28)-NH2] |  | 0.5 nM
